From patent publication US20140072613A1 (published 2014) come the findings set out here.

Targets include PDGFRβ(h) (human, UniProt P09619 557-1106, limits assumed); IGF-1R(h) (human, UniProt P08069 959-1367, limits assumed); PDGFRα(h) (human, UniProt P16234 550-1089, limits assumed); p70S6K(h) (human, UniProt P23443 1-421); STK33(h) (human, UniProt Q9BYT3 1-514, limits assumed); HIPK1(h) (human, UniProt Q86Z02 158-555, limits assumed); CHK2(I157T)(h) (human, UniProt O96017 5-543, limits assumed); MSK1(h) (human, UniProt O75582 1-802); HIPK2(h) (human, UniProt Q9H2X6 165-564, limits assumed); Met(D1246H)(h) (human, UniProt P08581-2 974-1408, limits assumed); IRR(h) (human, UniProt P14616 960-1297, limits assumed); CK2(h) (human); PRK2(h) (human, UniProt Q16513 501-984, limits assumed); EphA7(h) (human, UniProt Q15375 577-998, limits assumed); MRCKα(h) (human, UniProt Q5VT25 1-473, limits assumed); Hck(h) (human, UniProt P08631 251-518, limits assumed).

Holding throughout (assay): cell-based or functional assay
Another assay has as its target T1, ULK3(h) (human, UniProt Q6PHR2 1-472, limits assumed).
T1 sequence (looked up): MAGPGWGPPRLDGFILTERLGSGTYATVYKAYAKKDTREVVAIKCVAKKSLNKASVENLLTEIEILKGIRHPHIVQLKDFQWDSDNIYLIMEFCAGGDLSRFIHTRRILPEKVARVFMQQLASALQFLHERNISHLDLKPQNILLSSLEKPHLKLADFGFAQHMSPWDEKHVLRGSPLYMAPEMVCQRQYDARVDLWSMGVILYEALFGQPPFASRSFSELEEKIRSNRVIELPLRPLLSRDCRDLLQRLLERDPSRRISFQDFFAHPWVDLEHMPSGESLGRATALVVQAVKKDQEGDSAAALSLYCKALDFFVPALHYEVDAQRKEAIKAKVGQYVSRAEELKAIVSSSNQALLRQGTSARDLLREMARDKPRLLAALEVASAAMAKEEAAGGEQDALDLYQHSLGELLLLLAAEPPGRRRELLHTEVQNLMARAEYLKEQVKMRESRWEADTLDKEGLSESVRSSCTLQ

For a further assay, the target named is T2, DRAK1(h) (human, UniProt Q9UEE5 1-414, limits assumed).
T2 sequence (looked up): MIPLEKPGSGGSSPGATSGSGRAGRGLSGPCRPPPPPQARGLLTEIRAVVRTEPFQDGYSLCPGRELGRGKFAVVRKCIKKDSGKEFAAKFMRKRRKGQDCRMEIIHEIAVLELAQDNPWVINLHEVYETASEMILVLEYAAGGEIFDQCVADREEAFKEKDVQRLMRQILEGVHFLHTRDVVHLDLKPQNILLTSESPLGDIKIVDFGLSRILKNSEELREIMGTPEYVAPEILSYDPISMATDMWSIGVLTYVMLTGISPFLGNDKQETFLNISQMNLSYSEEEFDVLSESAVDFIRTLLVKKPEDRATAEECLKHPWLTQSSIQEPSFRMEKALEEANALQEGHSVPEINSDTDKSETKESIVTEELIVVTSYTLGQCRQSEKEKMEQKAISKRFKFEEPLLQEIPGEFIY

The next assay addresses T3, Ret(V804M)(h) (human, UniProt P07949 658-1114, limits assumed).
T3 sequence (looked up): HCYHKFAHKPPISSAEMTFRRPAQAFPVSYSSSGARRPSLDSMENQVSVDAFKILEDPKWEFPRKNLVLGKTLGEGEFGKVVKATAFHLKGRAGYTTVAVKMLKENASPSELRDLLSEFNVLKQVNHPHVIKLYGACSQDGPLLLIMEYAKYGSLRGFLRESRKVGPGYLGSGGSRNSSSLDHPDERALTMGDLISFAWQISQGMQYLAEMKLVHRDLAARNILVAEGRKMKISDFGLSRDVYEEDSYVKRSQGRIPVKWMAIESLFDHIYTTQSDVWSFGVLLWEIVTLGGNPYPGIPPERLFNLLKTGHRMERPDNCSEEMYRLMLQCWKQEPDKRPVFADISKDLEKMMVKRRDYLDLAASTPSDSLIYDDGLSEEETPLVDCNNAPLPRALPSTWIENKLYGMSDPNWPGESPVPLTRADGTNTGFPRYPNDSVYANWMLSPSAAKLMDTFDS

Chain of p70S6K(h) (P23443 1-421): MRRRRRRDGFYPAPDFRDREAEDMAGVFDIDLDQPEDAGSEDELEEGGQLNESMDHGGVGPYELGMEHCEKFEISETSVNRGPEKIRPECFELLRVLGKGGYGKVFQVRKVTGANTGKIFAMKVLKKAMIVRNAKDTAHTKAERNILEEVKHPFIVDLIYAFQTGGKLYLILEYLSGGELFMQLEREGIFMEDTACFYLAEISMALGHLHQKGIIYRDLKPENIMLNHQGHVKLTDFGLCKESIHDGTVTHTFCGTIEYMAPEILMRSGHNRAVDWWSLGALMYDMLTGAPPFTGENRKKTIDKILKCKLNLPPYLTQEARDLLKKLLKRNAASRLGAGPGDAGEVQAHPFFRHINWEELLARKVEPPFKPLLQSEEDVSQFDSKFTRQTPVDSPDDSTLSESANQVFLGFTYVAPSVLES
Chain of HIPK1(h) (Q86Z02 158-555 limits assumed): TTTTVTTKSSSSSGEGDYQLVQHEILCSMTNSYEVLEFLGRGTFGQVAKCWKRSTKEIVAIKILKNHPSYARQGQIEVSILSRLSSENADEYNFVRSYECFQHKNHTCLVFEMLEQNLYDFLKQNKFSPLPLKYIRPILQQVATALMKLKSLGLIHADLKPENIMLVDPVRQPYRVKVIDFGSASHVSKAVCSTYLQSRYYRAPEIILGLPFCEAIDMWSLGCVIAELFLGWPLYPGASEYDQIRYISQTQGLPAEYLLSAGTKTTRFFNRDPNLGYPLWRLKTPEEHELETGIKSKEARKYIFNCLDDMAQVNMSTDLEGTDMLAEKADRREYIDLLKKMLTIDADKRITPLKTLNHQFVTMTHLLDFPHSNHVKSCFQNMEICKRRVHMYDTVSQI
Chain of EphA7(h) (Q15375 577-998 limits assumed): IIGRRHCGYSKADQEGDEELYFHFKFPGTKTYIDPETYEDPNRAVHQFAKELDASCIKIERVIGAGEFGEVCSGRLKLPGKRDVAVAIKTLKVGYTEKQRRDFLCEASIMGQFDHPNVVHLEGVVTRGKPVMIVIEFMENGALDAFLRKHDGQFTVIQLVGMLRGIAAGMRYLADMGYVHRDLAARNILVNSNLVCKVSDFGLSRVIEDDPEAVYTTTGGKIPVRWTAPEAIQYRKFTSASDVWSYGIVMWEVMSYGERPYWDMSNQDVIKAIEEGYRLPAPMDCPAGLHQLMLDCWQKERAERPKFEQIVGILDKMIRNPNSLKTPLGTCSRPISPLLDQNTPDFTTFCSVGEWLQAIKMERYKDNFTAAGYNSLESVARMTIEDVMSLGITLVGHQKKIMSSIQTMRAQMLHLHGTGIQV
Chain of PRK2(h) (Q16513 501-984 limits assumed): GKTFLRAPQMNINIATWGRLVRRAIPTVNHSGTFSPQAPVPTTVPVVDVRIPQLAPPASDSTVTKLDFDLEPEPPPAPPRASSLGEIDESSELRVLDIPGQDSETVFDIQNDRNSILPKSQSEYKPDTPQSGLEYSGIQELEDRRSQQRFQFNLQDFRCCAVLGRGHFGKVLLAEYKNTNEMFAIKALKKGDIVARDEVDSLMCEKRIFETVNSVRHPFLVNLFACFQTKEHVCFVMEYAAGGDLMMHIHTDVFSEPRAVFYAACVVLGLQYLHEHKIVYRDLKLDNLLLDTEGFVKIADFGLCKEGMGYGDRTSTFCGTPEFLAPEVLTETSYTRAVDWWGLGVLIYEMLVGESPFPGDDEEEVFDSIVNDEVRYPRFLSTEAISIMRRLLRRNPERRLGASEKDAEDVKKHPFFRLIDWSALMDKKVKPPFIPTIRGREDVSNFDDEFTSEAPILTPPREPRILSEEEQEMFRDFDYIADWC
Chain of IRR(h) (P14616 960-1297 limits assumed): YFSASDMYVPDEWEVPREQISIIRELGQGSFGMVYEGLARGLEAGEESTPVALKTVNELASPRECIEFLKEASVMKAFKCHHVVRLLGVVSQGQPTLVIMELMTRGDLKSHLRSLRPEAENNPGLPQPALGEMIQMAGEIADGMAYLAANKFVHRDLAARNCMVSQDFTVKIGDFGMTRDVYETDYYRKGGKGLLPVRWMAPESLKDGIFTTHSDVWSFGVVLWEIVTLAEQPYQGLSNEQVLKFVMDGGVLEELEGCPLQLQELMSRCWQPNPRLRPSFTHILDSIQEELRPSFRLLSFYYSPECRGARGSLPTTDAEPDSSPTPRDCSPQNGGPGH
Chain of MRCKα(h) (Q5VT25 1-473 limits assumed): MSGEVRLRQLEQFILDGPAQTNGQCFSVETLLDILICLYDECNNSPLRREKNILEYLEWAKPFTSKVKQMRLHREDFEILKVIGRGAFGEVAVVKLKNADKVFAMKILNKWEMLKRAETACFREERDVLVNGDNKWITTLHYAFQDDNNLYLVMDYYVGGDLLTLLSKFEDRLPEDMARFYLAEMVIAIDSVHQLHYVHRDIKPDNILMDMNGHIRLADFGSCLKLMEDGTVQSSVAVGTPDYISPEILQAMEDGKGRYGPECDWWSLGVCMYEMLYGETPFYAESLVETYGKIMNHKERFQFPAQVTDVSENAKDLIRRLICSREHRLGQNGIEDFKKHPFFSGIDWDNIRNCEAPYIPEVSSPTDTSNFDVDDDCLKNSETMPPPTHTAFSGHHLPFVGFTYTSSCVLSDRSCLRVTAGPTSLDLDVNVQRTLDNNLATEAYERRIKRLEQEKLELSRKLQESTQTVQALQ
Chain of Hck(h) (P08631 251-518 limits assumed): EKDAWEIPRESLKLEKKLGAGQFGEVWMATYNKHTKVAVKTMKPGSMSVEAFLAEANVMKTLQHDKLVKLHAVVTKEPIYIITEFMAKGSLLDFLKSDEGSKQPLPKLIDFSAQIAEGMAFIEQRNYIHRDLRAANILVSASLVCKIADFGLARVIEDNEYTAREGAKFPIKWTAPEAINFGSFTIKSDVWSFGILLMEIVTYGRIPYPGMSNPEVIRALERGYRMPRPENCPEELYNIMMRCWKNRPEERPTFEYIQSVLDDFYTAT
Chain of CHK2(I157T)(h) (O96017 5-543 I157T limits assumed): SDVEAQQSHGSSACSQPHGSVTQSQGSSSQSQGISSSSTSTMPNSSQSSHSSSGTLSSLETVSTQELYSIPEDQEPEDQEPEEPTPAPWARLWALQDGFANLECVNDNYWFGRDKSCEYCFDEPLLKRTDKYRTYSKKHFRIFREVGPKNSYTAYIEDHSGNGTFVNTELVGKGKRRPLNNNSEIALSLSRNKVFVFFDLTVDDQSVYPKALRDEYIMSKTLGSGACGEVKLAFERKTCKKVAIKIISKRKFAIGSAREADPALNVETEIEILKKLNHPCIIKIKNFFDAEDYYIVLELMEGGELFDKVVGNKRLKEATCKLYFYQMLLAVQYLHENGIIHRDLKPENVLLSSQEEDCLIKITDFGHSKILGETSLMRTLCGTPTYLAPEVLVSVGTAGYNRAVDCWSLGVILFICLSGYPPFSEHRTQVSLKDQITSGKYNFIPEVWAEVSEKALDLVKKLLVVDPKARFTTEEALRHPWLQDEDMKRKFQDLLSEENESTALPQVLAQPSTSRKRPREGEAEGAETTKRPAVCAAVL
Chain of STK33(h) (Q9BYT3 whole entry): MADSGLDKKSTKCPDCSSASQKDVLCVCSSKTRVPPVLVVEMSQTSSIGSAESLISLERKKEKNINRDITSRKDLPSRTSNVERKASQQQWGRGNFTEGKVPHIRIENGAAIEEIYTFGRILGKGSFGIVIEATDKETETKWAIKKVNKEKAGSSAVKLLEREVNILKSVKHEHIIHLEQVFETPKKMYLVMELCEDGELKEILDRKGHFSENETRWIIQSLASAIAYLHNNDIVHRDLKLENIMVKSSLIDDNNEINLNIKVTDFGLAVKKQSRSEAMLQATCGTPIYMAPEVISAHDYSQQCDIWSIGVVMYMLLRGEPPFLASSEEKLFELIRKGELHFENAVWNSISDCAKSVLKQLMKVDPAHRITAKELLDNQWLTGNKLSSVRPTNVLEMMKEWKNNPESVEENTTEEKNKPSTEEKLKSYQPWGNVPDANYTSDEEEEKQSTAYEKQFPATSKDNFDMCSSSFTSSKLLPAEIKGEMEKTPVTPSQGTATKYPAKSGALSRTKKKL
Chain of HIPK2(h) (Q9H2X6 165-564 limits assumed): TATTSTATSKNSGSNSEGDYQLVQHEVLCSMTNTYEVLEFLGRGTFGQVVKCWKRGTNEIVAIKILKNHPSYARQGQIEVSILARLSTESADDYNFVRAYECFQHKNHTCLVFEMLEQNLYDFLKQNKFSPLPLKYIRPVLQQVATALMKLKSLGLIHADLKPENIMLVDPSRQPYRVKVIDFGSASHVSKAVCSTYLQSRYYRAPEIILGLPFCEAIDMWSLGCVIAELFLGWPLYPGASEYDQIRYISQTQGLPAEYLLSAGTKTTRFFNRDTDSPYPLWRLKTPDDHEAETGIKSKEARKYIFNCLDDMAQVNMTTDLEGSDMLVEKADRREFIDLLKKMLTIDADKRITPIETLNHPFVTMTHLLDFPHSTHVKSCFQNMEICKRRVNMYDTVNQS
Chain of PDGFRα(h) (P16234 550-1089 limits assumed): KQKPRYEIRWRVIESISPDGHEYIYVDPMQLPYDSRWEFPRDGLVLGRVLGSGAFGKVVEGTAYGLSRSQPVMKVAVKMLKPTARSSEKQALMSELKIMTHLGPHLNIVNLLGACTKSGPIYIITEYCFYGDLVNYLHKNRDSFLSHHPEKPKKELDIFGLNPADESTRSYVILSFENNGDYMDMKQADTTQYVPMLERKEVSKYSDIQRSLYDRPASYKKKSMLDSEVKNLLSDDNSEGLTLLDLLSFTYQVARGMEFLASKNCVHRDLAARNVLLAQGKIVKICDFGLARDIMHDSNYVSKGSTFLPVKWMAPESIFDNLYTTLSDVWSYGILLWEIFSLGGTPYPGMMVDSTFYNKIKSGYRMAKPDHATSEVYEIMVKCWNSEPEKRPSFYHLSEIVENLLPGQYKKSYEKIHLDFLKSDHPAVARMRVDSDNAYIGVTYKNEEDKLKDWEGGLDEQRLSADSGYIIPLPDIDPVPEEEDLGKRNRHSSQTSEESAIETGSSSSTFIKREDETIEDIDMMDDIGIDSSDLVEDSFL

For FAKLAARLYRKALARQLGVAA [MMI-0300], the “% activity, 100 µM” value came out at 81% with PDGFRβ(h); 119% in the assay with IGF-1R(h); 65% with PDGFRα(h); 35% with p70S6K(h); 45% with STK33(h); 74% with HIPK1(h). Further, the “% activity, 100 µM” value in the assay with CHK2(I157T)(h) stood at 43%; with ULK3(h), 167%; with DRAK1(h), 14%; in the assay with MSK1(h), 32%; with HIPK2(h), 73%; with Met(D1246H)(h), 125%. The “% activity, 100 µM” value is 8% with IRR(h); 90% in the assay with CK2(h); 33% with PRK2(h); 159% with EphA7(h); 104% with MRCKα(h); 72% in the assay with Hck(h). Also, the “% activity, 100 µM” value in the assay with Ret(V804M)(h) came out at 95%.
Turning to KAFAKLAARLYRKALARQLGVAA [MMI-0400], the “% activity, 100 µM” value in the assay with PDGFRβ(h) came out at 53%; with IGF-1R(h), 90%; with PDGFRα(h), 40%; with p70S6K(h) it was 33%; in the assay with STK33(h) it was 52%; with HIPK1(h), 91%. In addition, the “% activity, 100 µM” value is 41% with CHK2(I157T)(h); 147% in the assay with ULK3(h); 14% with DRAK1(h); 28% with MSK1(h); 90% with HIPK2(h); 68% with Met(D1246H)(h). Moreover, the “% activity, 100 µM” value with IRR(h) turned out to be 8%; with CK2(h), 101%; with PRK2(h), 27%; with EphA7(h), 222%; with MRCKα(h), 97%; with Hck(h) it was 72%. In the assay with Ret(V804M)(h), the “% activity, 100 µM” value is 87%.
